Measurements as given in the nanobody polyreactivity screen of Harvey et al. (2022).

Assay: yeast display, Sf9 membrane polyspecificity reagent, FACS + sequencing; frameworks hold sequencing errors
In short: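 A synthetic nanobody library was expressed on Saccharomyces cerevisiae BJ5465 by galactose induction for 36–48 hours. The library was stained for 1 hour at 4 °C with 10% biotinylated, detergent-solubilized Sf9 membrane reagent and enriched with streptavidin microbeads before FACS. Low and high (top ~1%) gates were set on anti-HA fluorescence for expression and streptavidin fluorescence for reagent binding, and each polyreactivity label reflects the gate of origin.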

| Sequence | polyreactivity (PSR sort gate) |
| --- | --- |
| QVQLVESAAGLVQAGGCLRLSCAASGRIFGYYAMGGYRKAPGKERELVAAITSGGGTYYADSVKGRFTNSRDNAKNTVYLQMNSLKPEDTAVYFCAADDYFHDDYCGQGTQVTVSS | high polyreactivity |
| QVQLVESAAGLVQAGGRLRLSCAASGYTFSNYAMGWSRQAPGKERELVAAISRSGGSTYYADSVKGRFTISRDNAKNTVYLQMNSLNPVDTAVYYCAASRSGTYDWGLGTQVTVSS | high polyreactivity |
| QVQLVESAAGLVQAGGSLRLSCAASGRIFRYNTMGWYRQAPGKESELVAAITSGVRTNYADSVKGRFTISRDNAKNTVYLQMNSLKPEDTAVYYCAADPYWFFPNYDSWGQGTQVTVSS | low polyreactivity |
| QVQLVESAAGLVQAGGSLRLSCAASGRISHRNAMGWSRQAPGKERELVAAITSGGSTNYADSVKGRFTISRDNAKNTVYLQMNSLKPEDTAVYYCAARRLPSTWYIYWGQGTQVTVSS | low polyreactivity |
| QVQLVESAAGLVQAGGSLRLSCAASGSTFYRYEMGWYRQAPGKERELVATNTSGGSSTYYADSVKGRFTISRDNAKNTVYLQMNSLKPEDTAVYYCAKVYTYSGVNLSSISTPYGYWGQGTQVTVSS | high polyreactivity |
| QVQLVESAAGLVQAGGSLRLSCAPSGSTFYLYDMGWYRQAPGKEREFVATITSGTSTTYADSVKGRFTISRDNAKNTVYLQMNSLKPEDTAVYYCNATDVGIITVGYGHGGYYWGQGTQVTVSS | low polyreactivity |
| QVQLVESAGALVQAGGSLRLSCAASGPTFSHNAMGWDRQAPGKERELVASIRSGGLTDYADSVKGRFTISRDNAKNTVYLQMTSLKPEDSAVFYCIAEGVWWSTRYDSWGQGTQVTVSS | low polyreactivity |
| QVQLVESAGGIVQAGGSLRLSCAASESIFETYDMGCYRQAPGTERELVAAITLSGGSTYYADSVKGRFTISRDNAKNTVYLQMNSLKPEDTAVYYCAADDSGVKVWEGDYWGQGTQVTVSS | low polyreactivity |
| QVQLVESAGGLVLAGGSLRLSCAASGRIFARNAMGWYRQAAGKEREFVAGITWSGSSTYYADSVKARFTISRDNAKNTVYLQMNSLKPEDTAVYYCAVDNYVGSLRIDHDYWGLGTQVTVSS | low polyreactivity |
| QVQLVESAGGLVQAAGSLRLSCDASGFTTYYNAMGWYRQAPGKERELVAAISSSGGSTNYADSVKGRFTISRDNAKNTVYLQMNSLKPEDTAVYYCAARLYGWYYGGYTRYDYWGQGTQVTVSS | high polyreactivity |
| QVQLVESAGGLVQAGGRLRLSCAASGIIFEQYAMGSYRQAPGKERELVAAISSGCTTYADSVKGRFTISRDNAKNTVYLQMNSLTPEDTAVYYGNADLSWDGPDWSDYEYDYWGQGTQVTVSS | low polyreactivity |
| QVQLVESAGGLVQAGGRLRLSCAAYGFTFNKYAMGWSRQAPGKEREVVAYISSGDRTYYADSVKGRFTISRDNAKNTVYLQMNSLKPEDTAVYYCNAPYRIILENNNYWGHGTQVTVSS | high polyreactivity |
| QVQLVESAGGLVQAGGSHRLSCAASGITFYRYVMARYRQAPGKERELVAAITSGGNTYYADSVKGRFTISRDNAKNTFYLQMNRLKPDDTAVYYCAAYFSGPFDYWGQGTQVTVSS | high polyreactivity |
| QVQLVESAGGLVQAGGSHRLSFAATGRIFGPNTMGWYRQAPGKERDLVATITGGGGTNYADSVKGRFRISRVNAKYTDYLQMNSLKPVDTAVYYCAADYGGAYEYGYWGQGTQVTVSS | low polyreactivity |
| QVQLVESAGGLVQAGGSLPLSCAASGFTFISNAMGWYRQSPAKERELVAAISSSGGRTYYAVSVKGRFTISRDNAKNTVYLQMNSVKPEDTAVYYSNADRSLLYSRKIEYDYWGQGTKVTVSS | low polyreactivity |
| QVQLVESAGGLVQAGGSLRLICAASGSILQPYAMGWYRQAPGKERELVAYISYSGASTYYADSVKGRFTISRDNPKNTVYLQLNSLKPEDPAVYYCNARYWYHYLTYDYSGQGTQVTVSS | high polyreactivity |

| Sequence | polyreactivity (PSR sort gate) |
| --- | --- |
| QVQLVESAGGLVQAGGSLRLICAATGLNLYVYVMGWYRQAPGKERELVAAITWSVSRTYYADSVKGRFTISRDNAKNTVYLQMNSLKPEDTAVYYCAARIPSDGYYYWGQGTQVTVSS | high polyreactivity |
| QVQLVESAGGLVQAGGSLRLRSAASGSTIWHNAMGWYRHAPGKERELVAGISGSGGSTYYADSVKGRFTISRDNAKNTVYLEMNSMKPDDTAVYYCATDGRSRVDGVRRGPYDYWGQGTHVTVSS | low polyreactivity |
| QVQLVESAGGLVQAGGSLRLSCAASARTFSAYSMGWYRQAPGKERELVAAISRRGRSTYYADSVKGRFTISRDNAKNTVYLQMTSLKPEDTAVYYCAADVYKQYGYYYWGLGTQVTVSS | high polyreactivity |
| QVQLVESAGGLVQAGGSLRLSCAASGFIFGGNAMGWYRQAPGKERELVAAITARSGSTYYADSVKGRFTISRDNAKNTVYLQMNSLKPEDTAVYYCATPVYRSTYEYDYWGQGTQVTVSS | low polyreactivity |
| QVQLVESAGGLVQAGGSLRLSCAASGFIFSRNAMGWYRQAPGKERELVAVISTSGGSTYYADSVKGRFTISRDNAKNTVYLQMNSLKPEDTAVYYCAARRTRGYEYWGKGTQVTVSS | high polyreactivity |
| QVQLVESAGGLVQAGGSLRLSCAASGFTFGDNAMGWYRQAPGKERELVAAITSSGSTNYADSVKGRFTISRDNAKNTVYLQMNSLKPEDTAVYYCNAEDSVDAPVYKDLGSEYDSWGQGTQVTVSS | low polyreactivity |
| QVQLVESAGGLVQAGGSLRLSCAASGGTFLQYAMGSYRQAPGKERELVATITLIGDSTYYADSVKGRFTISRDNAKNTVYLQMNSLIPEDTAVYYCADRPVTSYAYGSWGQGTQVTVSS | low polyreactivity |
| QVQLVESAGGLVQAGGSLRLSCAASGIIFDDNAKGWYRQAPGKERELVAAISGRGGSTYYADSVKGRFTISRDNAKNTVYLQMNSLKPEDTAVYYCAASTVRRGTAPYSGGGDYWGQGTQVTVSS | high polyreactivity |
| QVQLVESAGGLVQAGGSLRLSCAASGIIFEYYTRGWYRQAPGKERELVASITYDGDSTYYADSVKGRFTISRDNAKNTVYLQMNSLKPEDTAVYYCAADYYYVYSSFGHYYWGQGTQVTVSS | low polyreactivity |
| QVQLVESAGGLVQAGGSLRLSCAASGIIFPAYAMGWYRQAPGKERELVAGISGRGGSTYYADSVKGRFTISRDNAKNTVYLQMNSLKPEDTAVYYCAAYAGGPYKFDYWGQGTQVTVSS | high polyreactivity |
| QVQLVESAGGLVQAGGSLRLSCAASGITFTYYAMGWYRQAPGKERELVATISYGGGITYYADSVKGRFTISRDNAKNTVYLQMNSLKPEDTAVYYCNADGATVWSLEYWGQGTQVTVSS | low polyreactivity |
| QVQLVESAGGLVQAGGSLRLSCAASGLTFTTYAMGWYRQAPGKERELVAAISRRGSRTYYADSVKGRFTISRDNAKNTVYLQMNSLKPEDTAVYYCNALTGSFKTYSFDYWGQGTQVTVSS | high polyreactivity |
| QVQLVESAGGLVQAGGSLRLSCAASGNTFHSNALGWYRQAPGKERELVAAITPSDGDTYYADSVKGRFTISRDNAKNTVYLQMNSLKPEDTAVYYCAAEDDPGEYEYWGQGTQVTESS | low polyreactivity |
| QVQLVESAGGLVQAGGSLRLSCAASGRIFGINSLGWYRQAPGKERELDAAISSGGSTYYADSVKGRFTISRDNAKYTVYILMNSEKPVDSAVYYCASDYDSSVCHDRGFWRDYWGQGNQVTVSS | low polyreactivity |
| QVQLVESAGGLVQAGGSLRLSCAASGRIFGYNAMGWYRQAPGKERELVAVITYSGGSTYYADSVKGRFTISRDNAKNTVYLQMNSLKPEDTAVYYCAKATTWGYFRVWSTRYYYWGQGTQVTVSS | low polyreactivity |
| QVQLVESAGGLVQAGGSLRLSCAASGRIFPFYAMGWYRQAPGKERELVAAISWNGGSTFYADSVKGRFTISRDNAKNTVYLQMNSLKPEDTAVYYCNADCRPAYTYDYWGQGTQVTVSS | low polyreactivity |
